Results on 8 molecules are retold here after patent US20250313625A1 (ELPISCIENCE SUZHOU BIOPHARMA, published 2025).

Positions count from the first letter of the chain named. In names and notes the source's numbering stands. Like-named read-outs stand apart in the source and are kept apart here.

The target of test [1] is T1, human LAG3 (form used in Octet, Biacore and HDX-MS not given) (human, UniProt P18627 23-450, limits assumed).
T1 sequence (looked up): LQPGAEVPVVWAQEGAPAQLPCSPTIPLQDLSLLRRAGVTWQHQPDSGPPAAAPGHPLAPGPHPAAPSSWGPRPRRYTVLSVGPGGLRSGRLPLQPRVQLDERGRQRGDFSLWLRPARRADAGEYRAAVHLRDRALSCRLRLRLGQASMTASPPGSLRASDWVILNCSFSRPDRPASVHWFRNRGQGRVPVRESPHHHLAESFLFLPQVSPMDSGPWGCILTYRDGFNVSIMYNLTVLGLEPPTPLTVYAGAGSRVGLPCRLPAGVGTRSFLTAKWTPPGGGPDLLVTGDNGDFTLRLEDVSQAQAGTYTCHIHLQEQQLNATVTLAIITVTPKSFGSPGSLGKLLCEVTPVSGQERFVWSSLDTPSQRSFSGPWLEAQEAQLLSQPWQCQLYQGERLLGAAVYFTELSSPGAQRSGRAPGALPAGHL
Kind of test: BLI (Octet).

Test [2] concerns the target T2, human LAG3, full length, stably expressed on cells (human, UniProt P18627 23-525).
T2 construct: whole, on cells; also called CHOK1-human LAG3
T2 sequence (looked up): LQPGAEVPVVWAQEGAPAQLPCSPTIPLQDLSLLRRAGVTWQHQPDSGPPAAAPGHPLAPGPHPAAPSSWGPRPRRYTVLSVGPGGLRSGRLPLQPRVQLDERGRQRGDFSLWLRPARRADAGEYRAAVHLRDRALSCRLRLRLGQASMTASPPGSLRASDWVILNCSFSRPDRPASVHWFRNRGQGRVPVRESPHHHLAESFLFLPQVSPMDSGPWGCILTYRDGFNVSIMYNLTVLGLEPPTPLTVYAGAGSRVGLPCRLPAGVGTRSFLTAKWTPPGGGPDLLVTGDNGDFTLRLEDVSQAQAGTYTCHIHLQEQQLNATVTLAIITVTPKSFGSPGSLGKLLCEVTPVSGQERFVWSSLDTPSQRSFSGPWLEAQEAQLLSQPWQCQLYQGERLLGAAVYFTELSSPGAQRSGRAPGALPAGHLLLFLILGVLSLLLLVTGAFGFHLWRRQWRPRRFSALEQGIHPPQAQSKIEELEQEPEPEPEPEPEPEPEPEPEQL
Kind of test: FACS on 293F cells stably expressing human LAG3. As for the experimental part: (§1) Briefly the antibodies were incubated with 2×10⁵ target cells at 4° C. for 1 hour. After washing, fluorescence labeled anti-mouse IgG 2nd antibody (Life Technologies) was added and incubated at 4° C. for 1 hour. Geometric median fluorescence intensity (MFI) was detected and EC₅₀ was calculated using GraphPad Prism9.0.
(§2) MFI was detected and EC₅₀ was calculated using GraphPad Prism9.0.

In test [3] the target is T3, mFc tagged human LAG3 ECD recombinant protein (human, UniProt P18627 23-450).
T3 construct: extracellular domain; purchased from Biointron; not shown: mouse IgG Fc (mFc) tag
T3 sequence (looked up): T1 sequence (looked up)
Kind of test: competitive FACS: mFc-LAG3 ECD binding to Raji cells (MHC II). As for the experimental part:
(§3) Activity of the purified chimeric antibodies to block LAG3 and MHC II interaction was determined by competitive FACS assay. […] After washing, dye labeled anti-mouse Fc 2nd antibody (Sigma) was added and incubated at 37° C. for 1 hour. Fluorescence intensity was detected.

Test [4] has as its target T4, hFc tagged human LAG3 ECD recombinant protein (human, UniProt P18627 23-450).
T4 construct: range 23-450; also called biotin labelled hFc tagged human LAG3 ECD; not shown: human IgG Fc tag
T4 sequence (looked up): T1 sequence (looked up)
Kind of test: competitive ELISA format II: biotin hFc-LAG3 ECD binding to coated His-FGL1. The procedure:
(§4) After washing, HRP labeled anti-His 2nd antibody (Sigma) was added and incubated at 37° C. for 1 hour. Then, 100 μl/well of TMB solution (Biotechnology) was added. After incubation for 15 minutes at room temperature, the reaction was stopped by the addition of 50 μl of 1N HCl. OD 450 nm was read. […] After washing, HRP labeled anti-SA 2nd antibody (Sigma) was added and incubated at 37° C. for 1 hour. Then, 100 μl/well of TMB solution (Biotechnology) was added. After incubation for 15 minutes at room temperature, the reaction was stopped by the addition of 50 μl of 1N HCl. OD 450 nm was read. […] The competition assay of format III is a competitive FACS assay. […] After washing, dye labeled anti-His 2nd antibody (Sigma) was added and incubated at 37° C. for 1 hour. Fluorescence intensity was detected.

Test [5] addresses T2, human LAG3, full length, stably …. Kind of test: FACS on 293F cells stably expressing human LAG3. As for the experimental part:
as §1, §2
The source holds these as a separate data set.

The target in test [6] is T3, mFc tagged human LAG3 ECD recombinant …. Kind of test: competitive FACS: mFc-LAG3 ECD binding to Raji cells (MHC II). As for the experimental part: as §3
The source holds these as a separate data set.

Test [7] concerns the target T5, human LAG3 ECD recombinant protein (plate coated, tag not stated) (human, UniProt P18627 23-450).
T5 construct: extracellular domain
T5 sequence (looked up): T1 sequence (looked up)
Kind of test: competitive ELISA format I: His-FGL1 binding to coated LAG3 ECD. As for the experimental part:
as §4

Test [8] deals with T1, human LAG3 (form used in Octet, Biacore …). Kind of test: BLI (Octet), 1:1 fit. As for the experimental part: The purified chimeric antibodies were characterized for binding affinity against human LAG3 using Bio-Layer Interferometry technology (Octet system). The association and dissociation curves were fit with 1:1 binding model, and the Ka/Kd/KD values for each antibody were calculated.

B1: hu023.07 (antibody, human IgG4, V domains shown)
VH: QVQLVQSGPEVKKPGASVKVSCKASGYTFTESPMNWVRQAPGQGFEWMGIIYTDTGEPTYAEEFKGRVTMTLDTSTSTVYMELSSLRSEDTAVYFCASDYGSILYWYFDVWGQGTLVTVSS
VL: DIQMTQSPSSLSASVGDRVTITCKASQDVSTAVAWYQQKPGKAPKLLIYSASYRYTGVPSRFSGSGSGTDFTLTISSLQPEDFATYYCQQHYNAPPTFGQGTKLEIK
notes: humanized from 023c
With B1, in test [1], the equilibrium dissociation constant (Kd) amounted to 0.591 nM, the koff is 0.000153 s⁻¹ and the on-rate constant (kon) is 259000 M⁻¹ s⁻¹. In addition, in test [2], the EC50 came out at 0.32 nM and the “TOP MFI” value is 2990. Besides, in test [3], the IC50 worked out at 5.5 nM and the “TOP blocking (%)” value worked out at 99.2%. Besides, in test [4], the IC50 was 1.5 nM and the “TOP blocking (%)” value worked out at 81.3%.

B2: hu023.10 (antibody, human IgG4, V domains shown)
VH: QVQLVQSGPELKKPGASVKVSCKASGYTFTESPMNWVRQAPGQGFEWMGIIYTDTGEPTYAEEFKGRFVFSLDTSVSTAYLQISSLKAEDTAVYFCVSDYGSILYWYFDVWGQGTLVTVSS
VL: B1 VL
notes: humanized from 023c
Turning to B2, in test [1], the equilibrium dissociation constant (Kd) amounted to 0.281 nM, the koff is 7.96e-05 s⁻¹ and the kon is 284000 M⁻¹ s⁻¹. In test [2], the 50% effective concentration (EC50) turned out to be 0.2 nM and the “TOP MFI” value came to 3200. Further, in test [3], the IC50 was determined as 5.9 nM and the “TOP blocking (%)” value was 99.2%. In addition, in test [4], the IC50 was determined as 1.3 nM and the “TOP blocking (%)” value came to 82.8%.

B3: hu023.13 (antibody, human IgG4, V domains shown)
VH: B2 VH with V2I, V20I
VL: B1 VL
notes: humanized from 023c
B3: in test [1], the equilibrium dissociation constant (Kd) came out at 0.121 nM, the koff came out at 3.67e-05 s⁻¹ and the kon is 303000 M⁻¹ s⁻¹. In test [2], a half-maximal response (EC50) required 0.19 nM and the “TOP MFI” value was 3100. In test [3], the half-inhibitory concentration (IC50) came out at 5.7 nM and the “TOP blocking (%)” value is 99.3%. For the same molecule, in test [4], the IC50 turned out to be 1.2 nM and the “TOP blocking (%)” value was determined as 83.2%.

B4: 057c (antibody, human IgG4, V domains shown)
VH: QVQLQQSGAELARPGASVKLSCKASGFSFTSYGINWVKQRTGQGLEWIGEIYPRSGNTYYNEKLKGEATLTADRSSSTAYMELRSLTSEDSAVYFCARGGTYDGYYYAMDYWGQGTSVTVSS
VL: NIVLTQSPASLAVSLGQRATISCRASESVDNFGSSFMHWYQQKPGQAPKLLIYRASNLESGIPARFGGSGSGTDFTLTIDPVETDDVATYYCQQVNKDPRTFGGGTKLEIK
notes: human IgG4 S228P / kappa chimeric antibody; also called chimeric antibody 057; not shown: human kappa light chain constant region (pcDNA3.4-hIgGk vector)
B4: in test [5], a half-maximal effect (EC50) was put at 1.4 nM and the “TOP MFI” value is 337. In addition, in test [6], the IC50 turned out to be 2.5 nM and the “TOP blocking (%)” value was 95.1%. In test [7], the “Blocking ratio at 66.7 nM (%)” value is 33.3%.

B5: 033c (antibody, human IgG4, V domains shown)
VH: EVQLQQSGAELVRPGASVKLSCTASDFNIKDDYIHWVKQRPEQGLEWIGWIDLENGDTEYASKFQGKATITADTSSNTAYLQLSSLTSEDTAVYYCTTKGSHWGQGTLVTVSA
VL: DVVMTQIPLSLPVSLGDQASISCRSSQSLVYSNGNTYLNWYLQKPGQSPKLLIHKVSNRFSGVPDRFSGSGSGTDFTLKISRVEAEDLGVYFCSQSTHVPYTFGGGTKLEIR
notes: human IgG4 S228P / kappa chimeric antibody; also called chimeric antibody 033; not shown: human kappa light chain constant region (pcDNA3.4-hIgGk vector)
In the case of B5, in test [5], the EC50 was found to be 2.4 nM and the “TOP MFI” value came out at 394. Further, in test [6], the concentration for half-maximal inhibition (IC50) was found to be 3.9 nM and the “TOP blocking (%)” value was 95%. Further, the “Blocking ratio at 66.7 nM (%)” value in test [7] came to 67.8%.

B6: 048c (antibody, human IgG4, V domains shown)
VH: EFQVQQSGPELVKPGASVKISCKASGYSFSDYNMNWLKQSTGKSLEWIGLVDPIYGTIRYNQKFKGKATLTVDQSSSTAYMQLNSLTSEDSAVYYCALITTSVRYFDYWGQGTTLTVSS
VL: DVLMTQTPLSLPVSLGDQASISCRSSQNIVHTDGNTYLEWYLQKPGQSPKLLIYKVSNRFSGVPDRFSGSGSGTDFTLKISRVEAEDLGVYYCFQGSHVPPTFGGGTKLEIK
notes: human IgG4 S228P / kappa chimeric antibody; also called chimeric antibody 048; not shown: human kappa light chain constant region (pcDNA3.4-hIgGk vector)
B6: in test [5], the concentration for a half-maximal effect (EC50) was found to be 1.3 nM and the “TOP MFI” value came out at 289. Moreover, in test [6], the IC50 amounted to 4 nM and the “TOP blocking (%)” value is 64.6%. Besides, in test [7], the “Blocking ratio at 66.7 nM (%)” value came to 41.2%.

B7: 039c (antibody, human IgG4, V domains shown)
VH: EFQLQQSGPELVKPGASVKISCKASGYSFTDYNLNWVRQSNGKSLEWIGLVDPIYGTIRYNQNFKDKATLTVDQSSSTAYMQLNSLTSEDSAVYYCASIMTAVRYFDHWGQGTTLTVSS
VL: B6 VL with S10F, Q27L, T32S, R82G
notes: human IgG4 S228P / kappa chimeric antibody; also called chimeric antibody 039; not shown: human kappa light chain constant region (pcDNA3.4-hIgGk vector)
As to B7, in test [5], the EC50 stood at 1.3 nM and the “TOP MFI” value came to 302. Also, in test [6], the IC50 came to 4.7 nM and the “TOP blocking (%)” value amounted to 62%. For the same molecule, the “Blocking ratio at 66.7 nM (%)” value in test [7] was 40.2%.

B8: TSR-033 (antibody, V domains shown)
VH: EVQLVQSGAEVKKPGATVKISCKASGFSIKDDYIHWVQQAPGKGLEWMGWIDAMNDDSQYSSKFQGRVTITVDTSTNTAYMKLSSLRSEDTAVYYCTYAFGGYWGQGTTVTVSS
VL: DIVMTQTPLSLSVTPGQPASISCRSSQSLVHSDSNTYLHWYLQKPGQSPQLLIYLVSNRFSGVPDRFSGSGSGTDFTLKISRVEAEDVGVYFCGQSTHVPYAFGGGTKVEIK
With B8, in test [8], the dissociation constant Kd amounted to 2.72 nM, the koff turned out to be 0.000674 s⁻¹ and the on-rate constant (kon) is 248000 M⁻¹ s⁻¹. Besides, in test [5], it took 2.6 nM to reach a half-maximal effect (EC50) and the “TOP MFI” value was 247. Also, in test [6], the half-maximal inhibitory concentration (IC50) worked out at 12.4 nM and the “TOP blocking (%)” value came out at 96%.
